Tests used:
Conditions in all cases: both partners purified
[1] = biological target: T1, recombinant KLHL37-His protein (UniProt O14682 1-589); assay: pull-down; in vitro co-IP: recombinant KLHL37-His incubated with GST fusion protein at RT (25°C) for 3 hours, then GST resin (preblocked with 1% BSA); IP: GST, IB: KLHL37
T1 construct: Kelch-like protein 37 (KLHL37), also known as ectodermal-neural cortex 1 (ENC1); also called rKLHL37-His; KLHL37-His (6x); source: E. coli BL21, purified (HisTrap HP)
T1 sequence (looked up): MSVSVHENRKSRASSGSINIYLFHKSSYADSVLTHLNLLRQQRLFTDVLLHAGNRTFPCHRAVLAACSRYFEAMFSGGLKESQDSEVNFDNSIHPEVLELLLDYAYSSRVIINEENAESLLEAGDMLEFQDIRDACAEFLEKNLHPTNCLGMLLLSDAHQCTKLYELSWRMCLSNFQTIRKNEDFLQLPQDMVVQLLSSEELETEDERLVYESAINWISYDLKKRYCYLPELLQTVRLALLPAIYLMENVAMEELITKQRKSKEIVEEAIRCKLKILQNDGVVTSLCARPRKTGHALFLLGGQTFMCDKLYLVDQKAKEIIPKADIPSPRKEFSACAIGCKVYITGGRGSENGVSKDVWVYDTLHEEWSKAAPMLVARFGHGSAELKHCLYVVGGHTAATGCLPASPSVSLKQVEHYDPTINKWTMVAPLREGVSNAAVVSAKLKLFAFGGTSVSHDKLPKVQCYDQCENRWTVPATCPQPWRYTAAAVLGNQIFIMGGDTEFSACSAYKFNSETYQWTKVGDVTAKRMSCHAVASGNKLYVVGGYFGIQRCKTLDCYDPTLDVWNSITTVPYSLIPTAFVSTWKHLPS

[2] = biological target: T2, KLHL37-His recombinant protein (UniProt O14682 1-589); assay: pull-down; in vitro co-IP: recombinant KLHL37-His incubated with GST or GST–N-Myc at RT (25°C) for 3 hours, then GST resin preblocked with 1% BSA
T2 construct: Kelch-like protein 37 (KLHL37, ENC1); the methods name only KLHL37-His; also called recombinant KLHL37; KLHL37-His (6×); source: E. coli BL21, purified (HisTrap HP)
T2 sequence (looked up): T1 sequence (looked up)

[3] = biological target: T2, KLHL37-His recombinant protein; assay: MST; GFP–N-Myc or GFP–C-Myc at 200 nM in PBS-T (0.05% Tween 20); KLHL37-His serially diluted 16 times from 27.3 nM (N-Myc) or 7 μM (C-Myc); mixed 1:1; EC50 fitted

B1: recombinant GST-N-Myc protein (natural protein, UniProt P04198 1-464, looked up)
chain: MPSCSTSTMPGMICKNPDLEFDSLQPCFYPDEDDFYFGGPDSTPPGEDIWKKFELLPTPPLSPSRGFAEHSSEPPSWVTEMLLENELWGSPAEEDAFGLGGLGGLTPNPVILQDCMWSGFSAREKLERAVSEKLQHGRGPPTAGSTAQSPGAGAASPAGRGHGGAAGAGRAGAALPAELAHPAAECVDPAVVFPFPVNKREPAPVPAAPASAPAAGPAVASGAGIAAPAGAPGVAPPRPGGRQTSGGDHKALSTSGEDTLSDSDDEDDEEEDEEEEIDVVTVEKRRSSSNTKAVTTFTITVRPKNAALGPGRAQSSELILKRCLPIHQQHNYAAPSPYVESEDAPPQKKIKSEASPRPLKSVIPPKAKSLSPRNSDSEDSERRRNHNILERQRRNDLRSSFLTLRDHVPELVKNEKAAKVVILKKATEYVHSLQAEEHQLLLEKEKLQARQQQLLKKIEHARTC
notes: N-Myc; also called rGST-N-Myc; source: SF9 insect cells (baculovirus), purified (GST TRAP HP); not shown: GST, N-terminal, kept
B1: binds [1].

B2: GST–N-Myc recombinant protein (natural protein, UniProt P04198 1-464, looked up)
chain: B1 chain
notes: N-Myc; source: SF9 insect cells (baculovirus), purified (GST TRAP HP); not shown: GST, N-terminal, kept
B2: binds [2].

B3: recombinant GFP–N-Myc (natural protein, UniProt P04198 1-464, looked up)
chain: B1 chain
notes: N-Myc; also called rGFP–N-Myc; source: E. coli BL21
B3: binds [3].
